B1: Lysozyme C, P61626 (parent)
chain: MKALIVLGLVLLSVTVQGKVFERCELARTLKRLGMDGYRGISLANWMCLAKWESGYNTRATNYNAGDRSTDYGIFQINSRYWCNDGKTPGAVNACHLSCSALLQDNIADAVACAKRVVRDPQGIRAWVAWRNRCQNRDVRQYVQGCGV

Variants of: B1
Conditions: Homo sapiens; pH 2.46; Thermal; DSC; glycine 0.05 M; reversible: yes; structure 1LZ1; whole UniProt chain shown
For MKALIVLGLVLLSVTVQGKVFERCELARTLKRLGMDGYRGIALANWMCLAKWESGYNTRATNYNAGDRSTDYGIFQINSRYWCNDGKTPGAVNACHLSCSALLQDNIADAVACAKRVVRDPQGIRAWVAWRNRCQNRDVRQYVQGCGV [S42A], the Tm was 58.8 °C, the “heat capacity change of unfolding” value was 1.46 kcal/mol/K and the “unfolding enthalpy (calorimetric)” value was 101 kcal/mol. For the same variant, the “unfolding enthalpy (van 't Hoff)” value was 105 kcal/mol.

Same assay, conditions: Homo sapiens; pH 2.66; Thermal; DSC; glycine 0.05 M; reversible: yes; structure 1LZ1; whole UniProt chain shown
With MKALIVLGLVLLSVTVQGKVFERCELARTLKRLGMDGYRGIALANWMCLAKWESGYNTRATNYNAGDRSTDYGIFQINSRYWCNDGKTPGAVNACHLSCSALLQDNIADAVACAKRVVRDPQGIRAWVAWRNRCQNRDVRQYVQGCGV [S42A] the Tm was 62.5 °C, the “heat capacity change of unfolding” value was 1.67 kcal/mol/K and the “unfolding enthalpy (calorimetric)” value was 106 kcal/mol. The “unfolding enthalpy (van 't Hoff)” value was 111 kcal/mol.

Same assay, conditions: Homo sapiens; pH 2.7; Thermal; DSC; glycine 0.05 M; reversible: yes; structure 1LZ1; whole UniProt chain shown
With MKALIVLGLVLLSVTVQGKVFERCELARTLKRLGMDGYRGIALANWMCLAKWESGYNTRATNYNAGDRSTDYGIFQINSRYWCNDGKTPGAVNACHLSCSALLQDNIADAVACAKRVVRDPQGIRAWVAWRNRCQNRDVRQYVQGCGV [S42A] the Tm was 63.3 °C, the “change of melting temperature, mutant - wild type (higher = more stable)” value (from here on “change of melting temperature, mutant”) was -1.6 °C and the “heat capacity change of unfolding” value was 1.51 kcal/mol/K. For the same variant, the “unfolding enthalpy (calorimetric)” value was 110 kcal/mol. For MKALIVLGLVLLSVTVQGKVFERCELARTLKRLGMDGYRGISLANWMCLAKWEAGYNTRATNYNAGDRSTDYGIFQINSRYWCNDGKTPGAVNACHLSCSALLQDNIADAVACAKRVVRDPQGIRAWVAWRNRCQNRDVRQYVQGCGV [S54A], the Tm was 61.4 °C, the “change of melting temperature, mutant” value was -3.5 °C and the “heat capacity change of unfolding” value was 1.31 kcal/mol/K. For the same variant, the “unfolding enthalpy (calorimetric)” value was 109 kcal/mol. With MKALIVLGLVLLSVTVQGKVFERCELARTLKRLGMDGYRGISLANWMCLAKWESGYNTRATNYNAGDRSTDYGIFQINSRYWCNDGKTPGAVNACHLACSALLQDNIADAVACAKRVVRDPQGIRAWVAWRNRCQNRDVRQYVQGCGV [S98A] the Tm was 66.3 °C, the “change of melting temperature, mutant” value was 1.4 °C and the “heat capacity change of unfolding” value was 1.43 kcal/mol/K. For the same variant, the “unfolding enthalpy (calorimetric)” value was 116 kcal/mol.

Same assay, conditions: Homo sapiens; pH 2.82; Thermal; DSC; glycine 0.05 M; reversible: yes; structure 1LZ1; whole UniProt chain shown
For MKALIVLGLVLLSVTVQGKVFERCELARTLKRLGMDGYRGIALANWMCLAKWESGYNTRATNYNAGDRSTDYGIFQINSRYWCNDGKTPGAVNACHLSCSALLQDNIADAVACAKRVVRDPQGIRAWVAWRNRCQNRDVRQYVQGCGV [S42A], the Tm was 65.7 °C, the “heat capacity change of unfolding” value was 1.55 kcal/mol/K and the “unfolding enthalpy (calorimetric)” value was 112 kcal/mol. The “unfolding enthalpy (van 't Hoff)” value was 117 kcal/mol.

Same assay, conditions: Homo sapiens; pH 3.09; Thermal; DSC; glycine 0.05 M; reversible: yes; structure 1LZ1; whole UniProt chain shown
For MKALIVLGLVLLSVTVQGKVFERCELARTLKRLGMDGYRGIALANWMCLAKWESGYNTRATNYNAGDRSTDYGIFQINSRYWCNDGKTPGAVNACHLSCSALLQDNIADAVACAKRVVRDPQGIRAWVAWRNRCQNRDVRQYVQGCGV [S42A], the Tm was 70.3 °C, the “heat capacity change of unfolding” value was 1.41 kcal/mol/K and the “unfolding enthalpy (calorimetric)” value was 118 kcal/mol. For the same variant, the “unfolding enthalpy (van 't Hoff)” value was 123 kcal/mol. For MKALIVLGLVLLSVTVQGKVFERCELARTLKRLGMDGYRGISLANWMCLAKWEAGYNTRATNYNAGDRSTDYGIFQINSRYWCNDGKTPGAVNACHLSCSALLQDNIADAVACAKRVVRDPQGIRAWVAWRNRCQNRDVRQYVQGCGV [S54A], the Tm was 68.7 °C, the “heat capacity change of unfolding” value was 1.22 kcal/mol/K and the “unfolding enthalpy (calorimetric)” value was 114 kcal/mol. The “unfolding enthalpy (van 't Hoff)” value was 119 kcal/mol.

Same assay, conditions: Homo sapiens; pH 2.47; Thermal; DSC; glycine 0.05 M; reversible: yes; structure 1LZ1; whole UniProt chain shown
For MKALIVLGLVLLSVTVQGKVFERCELARTLKRLGMDGYRGISLANWMCLAKWEAGYNTRATNYNAGDRSTDYGIFQINSRYWCNDGKTPGAVNACHLSCSALLQDNIADAVACAKRVVRDPQGIRAWVAWRNRCQNRDVRQYVQGCGV [S54A], the Tm was 57.1 °C, the “heat capacity change of unfolding” value was 1.31 kcal/mol/K and the “unfolding enthalpy (calorimetric)” value was 98.5 kcal/mol. For the same variant, the “unfolding enthalpy (van 't Hoff)” value was 103 kcal/mol.

Same assay, conditions: Homo sapiens; pH 2.67; Thermal; DSC; glycine 0.05 M; reversible: yes; structure 1LZ1; whole UniProt chain shown
With MKALIVLGLVLLSVTVQGKVFERCELARTLKRLGMDGYRGISLANWMCLAKWEAGYNTRATNYNAGDRSTDYGIFQINSRYWCNDGKTPGAVNACHLSCSALLQDNIADAVACAKRVVRDPQGIRAWVAWRNRCQNRDVRQYVQGCGV [S54A] the Tm was 60.8 °C, the “heat capacity change of unfolding” value was 1.31 kcal/mol/K and the “unfolding enthalpy (calorimetric)” value was 104 kcal/mol. The “unfolding enthalpy (van 't Hoff)” value was 109 kcal/mol.

Same assay, conditions: Homo sapiens; pH 2.84; Thermal; DSC; glycine 0.05 M; reversible: yes; structure 1LZ1; whole UniProt chain shown
With MKALIVLGLVLLSVTVQGKVFERCELARTLKRLGMDGYRGISLANWMCLAKWEAGYNTRATNYNAGDRSTDYGIFQINSRYWCNDGKTPGAVNACHLSCSALLQDNIADAVACAKRVVRDPQGIRAWVAWRNRCQNRDVRQYVQGCGV [S54A] the Tm was 64 °C, the “heat capacity change of unfolding” value was 1.24 kcal/mol/K and the “unfolding enthalpy (calorimetric)” value was 107 kcal/mol. The “unfolding enthalpy (van 't Hoff)” value was 113 kcal/mol.

Same assay, conditions: Homo sapiens; pH 2.5; Thermal; DSC; glycine 0.05 M; reversible: yes; structure 1LZ1; whole UniProt chain shown
For MKALIVLGLVLLSVTVQGKVFERCELARTLKRLGMDGYRGISLANWMCLAKWESGYNTRATNYNAGDRSTDYGIFQINSRYWCNDGKTPGAVNACHLACSALLQDNIADAVACAKRVVRDPQGIRAWVAWRNRCQNRDVRQYVQGCGV [S98A], the Tm was 62.7 °C, the “heat capacity change of unfolding” value was 1.41 kcal/mol/K and the “unfolding enthalpy (calorimetric)” value was 113 kcal/mol. The “unfolding enthalpy (van 't Hoff)” value was 120 kcal/mol.

Same assay, conditions: Homo sapiens; pH 2.69; Thermal; DSC; glycine 0.05 M; reversible: yes; structure 1LZ1; whole UniProt chain shown
In the case of MKALIVLGLVLLSVTVQGKVFERCELARTLKRLGMDGYRGISLANWMCLAKWESGYNTRATNYNAGDRSTDYGIFQINSRYWCNDGKTPGAVNACHLACSALLQDNIADAVACAKRVVRDPQGIRAWVAWRNRCQNRDVRQYVQGCGV [S98A], the Tm is reported as 66.2 °C, the “heat capacity change of unfolding” value is reported as 1.34 kcal/mol/K and the “unfolding enthalpy (calorimetric)” value is reported as 119 kcal/mol. The “unfolding enthalpy (van 't Hoff)” value was 126 kcal/mol.

Same assay, conditions: Homo sapiens; pH 2.85; Thermal; DSC; glycine 0.05 M; reversible: yes; structure 1LZ1; whole UniProt chain shown
In the case of MKALIVLGLVLLSVTVQGKVFERCELARTLKRLGMDGYRGISLANWMCLAKWESGYNTRATNYNAGDRSTDYGIFQINSRYWCNDGKTPGAVNACHLACSALLQDNIADAVACAKRVVRDPQGIRAWVAWRNRCQNRDVRQYVQGCGV [S98A], the Tm is reported as 69.1 °C, the “heat capacity change of unfolding” value is reported as 1.34 kcal/mol/K and the “unfolding enthalpy (calorimetric)” value is reported as 122 kcal/mol. For the same variant, the “unfolding enthalpy (van 't Hoff)” value was 129 kcal/mol.

Same assay, conditions: Homo sapiens; pH 3.11; Thermal; DSC; glycine 0.05 M; reversible: yes; structure 1LZ1; whole UniProt chain shown
In the case of MKALIVLGLVLLSVTVQGKVFERCELARTLKRLGMDGYRGISLANWMCLAKWESGYNTRATNYNAGDRSTDYGIFQINSRYWCNDGKTPGAVNACHLACSALLQDNIADAVACAKRVVRDPQGIRAWVAWRNRCQNRDVRQYVQGCGV [S98A], the Tm is reported as 73.6 °C, the “heat capacity change of unfolding” value is reported as 1.39 kcal/mol/K and the “unfolding enthalpy (calorimetric)” value is reported as 129 kcal/mol. For the same variant, the “unfolding enthalpy (van 't Hoff)” value was 135 kcal/mol.

Source: FireProtDB (doi:10.1021/bi9901228)
